Numbering of substitutions follows the chain as printed. Entries after “also recorded” stand apart in the source; their conditions may differ.
B1: zuotin: 433 amino acid yeast putative Z-DNA binding protein, SEQ ID NO: 2 (protein)
chain: MFSLPTLTSDITVEVNSSATKTPFVRRPVEPVGKFFLQHAQRTLRNHTWSEFERIEAEKNVKTVDESNVDPDELLFDTELADEDLLTHDARDWKTADLYAAMGLSKLRFRATESQIIKAHRKQVVKYHPDKQSAAGGSLDQDGFFKIIQKAFETLTDSNKRAQYDSCDFVADVPPPKKGTDYDFYEAWGPVFEAEARFSKKTPIPSLGNKDSSKKEVEQFYAFWHRFDSWRTFEFLDEDVPDDSSNRDHKRYIERKNKAARDKKKTADNARLVKLVERAVSEDPRIKMFKEEEKKEKERRKWEREAGARAEAEAKAKAEAEAKAKAESEAKANASAKADKKKAKEAAKAAKKKNKRAIRNSAKEADYFGDADKATTIDEQVGLIVDSLNDEELVSTADKIKANAAGAKEVLKESAKTIVDSGKLPSSLLSYFV
B2: bacterially expressed zuotin: zuotin expressed in E. coli with T7 pET system, Phe→Val after Met (protein, UniProt P32527 1-433, looked up, variant F2V)
Zuotin: B1 chain with F2V

Assays:
[1] = assay type: physicochemical
Method: Circular dichroism (CD) spectra were taken on an Aviv Model 60DS spectropolarimeter using program 60HDS for data processing. Because EAK16 contains both positively and negatively charged residues, the peptide itself can serve as a buffer. CD samples were prepared and measured at 25° C., unless otherwise indicated. All reagents were ultrapure and solutions were filtered through a […] before use. Circular dichroism (CD) spectroscopy was used to monitor the stability of the β-sheet structure of EAK16 under various conditions. Dilute […] concentrations. […] A 3 mM stock EAK16 solution was mixed in water to a concentration of 20 μM, allowed to equilibrate, and the CD spectrum measured. The solution was then diluted five times by two-fold serial dilutions to final concentrations of […], 10, 5.0, 2.5, 1.25 and 0.625 μM, allowed to equilibrate and CD spectra taken. […] Temperature. The CD spectra of 8 μM EAK16 at 25, 37, 55, 70 and 90° C. in water were measured. […] EAK16 has a calculated pI Of 6.71. It was assumed that changes of pH would have a great effect on the β-sheet structure, especially when the charged groups are neutralized. […] The 3 mM stock solution of EAK16 was mixed with pH buffers at pH 1.5, 3, 7, and 11 to a final concentration of 10 μM and allowed to equilibrate for 4 hours before taking CD measurements. […] Chemical denaturants. […] The peptide (3 mM stock) was mixed with water or different concentrations of guanidine-HCl or urea and allowed to incubate overnight before taking CD measurements. SDS was added to a peptide solution to a final concentration of 0.1% and incubated for 30 minutes.

[2] = Testing of peptides for macroscopic membrane formation (phase-contrast microscope, Congo Red staining); assay type: physicochemical; details: for formation of macroscopic membranes: identical conditions, in words; for membranous structure in DMEM: DMEM medium
Source text: The effect of length and sequence on membrane formation was examined using several peptides (Table 1 and Example 3). […] Very long peptides, e.g., of about 200 amino acids, may encounter problems due to insolubility and intramolecular interactions which destabilize membrane formation. […] The optimal lengths for membrane formation will probably vary with the amino acid composition.
The EAK12 and EAK16 tested for membrane formation were acetylated and aminylated at both N- and C-terminal ends. […] The peptides were initially dissolved in water (5 mg/ml) or in 23% acetonitrile (10 mg/ml). A volume of 5-10 microliters of the dissolved peptides were applied to the DMEM medium, PBS or water. The formation of the membrane was first observed under a phase-contrast microscope and then, by the naked eye after staining with Congo Red.

B-DNA = test: Binding of small peptides to B-DNA and conversion to the Z conformation; assay type: biochemical
Source text: A subportion of this histone-like region from amino acids 306 to 339 (heavily underlined in FIG. 1) is a likely candidate for a DNA-binding domain. […] The KAKAX motif (SEQ ID NO: 31) (where X is variable) occurs twice in the 306-339 region and also occurs in the peptide, EAK16. These observations are consistent with the structural similarity of this region to histone H1.

[3] = test system: poly(dG-m^5dC) in the Z-form; test: Gel retardation (band shift) and competition assay for Z-DNA binding; details: for competition of binding to poly(dG-m^5dC) by non-Z DNA: excess poly(dG-dC), poly(dA-dT), salmon sperm DNA; for affinity for Z-DNA relative to B-DNA: not purified to homogeneity, estimated
Source text: Two probes that can be stabilized in the Z-form were used to detect potential Z-DNA binding proteins. One is an ˜600 bp fragment of ^32P-labelled poly(dG-m^5dC) that is stabilized in the Z-DNA form by millimolar concentrations of MgCl2 (Behe and Felsenfeld, 1981); the other is an oligonucleotide, [^32P] (dG-BR^5dC)22, that can be stabilized by millimolar concentrations of MgCl2 or μM concentrations of Co(NH3)6^3+. Yeast whole cell extract, nuclear extracts, and phosphocellulose column fractions of yeast nuclear extracts were assayed by a gel retardation assay using either of these ^32P-labelled DNA fragments as a probe. The gel retardation assay was carried out with the probe in the presence of 10 mM MgCl2 and a 400-fold excess of sheared salmon sperm B-DNA. Under these conditions, the polymer assumes the Z-DNA conformation. A Z-DNA-specific antibody was used for positive control. 1 μl of each fraction of yeast nuclear extract obtained by salt elution from the phosphocellulose column with 0.2-0.5 M potassium phosphate (pH 7.4) was added to the assays.
In order to determine if these band shifts were the result of authentic Z-DNA binding, negatively supercoiled plasmids of pUC19 and pUC19(GC) were used as competitor DNAs in gel retardation competition assays. In these assays, [^32P] (dG-Br^5dC)22 was incubated in the presence of a 2000-fold excess of sheared salmon sperm DNA with additions as follows: 1) no addition; 2) a monoclonal anti-Z-DNA antibody (mAb); 3) mAb plus additional 50 ng of negatively supercoiled plasmid pUC19 (without a Z-DNA insert); 4) mAb plus 25 ng of negatively supercoiled pUC19(CG) (containing a Z-DNA segment); 5) fraction F1 yeast protein; 6) F1 plus additional 50 ng pUC19; and 7) F1 plus pUC19(GC). pUC19(GC) contains a 14 bp (dG-dC)7 insert that can adopt the Z-conformation upon negative supercoiling. pUC19(GC) was assayed for its resistance to BssHII digestion (Vardimon and Rich, 1983; Azorin et al., 1984) to confirm the presence of the Z-DNA prior to the assay.
However, enough material was in solution so that crude cell extracts and partially purified zuotin could be prepared and assayed by the band shift assay. Recombinant zuotin was partially purified by chromatography of crude cell extract from induced pETZU01 transformants through phosphocellulose. ^32P-labelled poly(dG-m5dC) in the Z-form was incubated with the crude cell extract or with partially purified zuotin in the presence of sheared salmon sperm DNA, poly(dG-dC), or poly(dG-Br^5dC). Assays were run on: 1) labelled probe alone; 2) crude cell extract from induced pET8c transformants; 3) crude cell extract from uninduced pETZU01 transformants; 4) crude cell extract from induced pETZU01 transformants; 5) partially purified recombinant zuotin; 6) partially purified yeast zuotin; 7)-10) partially purified recombinant zuotin with 20-, 40-, 100-, and 200-fold excess of salmon sperm DNA; 11)-12) partially purified recombinant zuotin with 20- and 40-fold excess of poly(dG-dC); 13)-14) partially purified recombinant zuotin with 20- and 40-fold excess of poly(dG-Br^5dC); 15)-17) partially purified yeast zuotin with 20-, 40-, and 200-fold excess of salmon sperm DNA; 18) partially purified yeast zuotin with 40-fold excess of poly(dG-dC); 19) partially purified yeast zuotin with 40-fold excess of poly(dG-Br^5dC); and 20) an anti-Z-antibody (as control).
A gel retardation assay was employed to detect proteins with affinity to left-handed Z-DNA. […]

Molecule	membranous structure in PBS [2]	formation of macroscopic membranes [2]	membranous structure in Water [2]	membranous structure in DMEM [2]	binding to B-DNA and conversion to Z-DNA (B-DNA)	also measured
Ac-HN-AEAKAEAEAKAK-CONH2 (Ac-AEAKAEAEAKAK-NH2) [EAK12]	+	able to associate to a much smaller extent and formed small and non-uniform pieces of membranous material	−			secondary structure and its stability [1]: denature from a β-sheet structure at high temperatures; Structure ([1]; secondary structure): α, β
H2N-AEAEAKAK-COOH (H-AEAEAKAK-OH) [EAK8]	−	did not form membranes	−	−		secondary structure and its stability [1]: random coil structure
H2N-ARARADAD-COOH (H-ARARADAD-OH) [ARD8, 8 amino acid counterpart of RAD16]	−	did not form macroscopic membranes	−	−		
H2N-GSNKGAIIGLM-CONH2 (H-GSNKGAIIGLM-NH2) [β-Amyloid (25-35), reference compound]	−	None of these peptides produced macroscopic membranes	−	−		
H2N-RPKQQFGLM-COHN2 (H-RPKQQFGLM-NH2) [Substance p, reference compound]	−	None of these peptides produced macroscopic membranes	−	−		
KAHAK					active in converting B-DNA to Z-DNA only when the histidine was protonated (at low pH)	
KAK					able to bind to B-DNA and convert it to the Z conformation	
KAKAK					able to bind to B-DNA and convert it to the Z conformation	
B1						excess of poly(dG-Br^5dC) in the Z-form that completely inhibits binding to the probe [3]: 4 fold; competition of binding to poly(dG-m^5dC) by non-Z DNA [3]: cannot be competed by 40-fold excess of poly(dG-dC), 200-fold excess of poly(dA-dT), nor several thousand-fold of salmon sperm DNA; affinity for Z-DNA relative to B-DNA ([3]; listed as yeast zuotin): bound Z-DNA more tightly than the bacterially expressed zuotin; also recorded: several hundred-fold enhanced affinity for Z-DNA relative to B-DNA
B2						competition of binding to poly(dG-m^5dC) by non-Z DNA [3]: cannot be competed by 40-fold excess of poly(dG-dC), 200-fold excess of poly(dA-dT), nor several thousand-fold of salmon sperm DNA; affinity for Z-DNA relative to B-DNA [3]: binds less tightly

From patent US6800481B1, “Stable macroscopic membranes formed by self-assembly of amphiphilic peptides and uses therefor” (priority 1992, dated 2004)
